US5786206
One block for each substance: values may come before it.

Columns and labels:
[1] = target: apo A-I/B-100 fusion protein expressed by plasmid 137 (beta-galactosidase / apo A-I / apo B-100) (human); experiment: ELISA, plate coated with 1/32 dilution of the 137 stock, HRPO-labeled MB47 1:1000
[2] = target: control protein from cells containing plasmid pUR291 (beta-galactosidase without an apolipoprotein insert) (Escherichia coli (strain K12)) [β-galactosidase: P00722]; experiment: ELISA, plate coated with 1/32 dilution of the pUR291 control stock, HRPO-labeled MB47 1:1000
[3] = target: apo A-I/B-100 fusion protein expressed by plasmid 137 (beta-galactosidase / apo A-I / apo B-100) (human); experiment: ELISA, plate coated with 1/8 dilution of the 137 stock, HRPO-labeled MB47 1:1000
[4] = target: control protein from cells containing plasmid pUR291 (beta-galactosidase without an apolipoprotein insert) (Escherichia coli (strain K12)) [β-galactosidase: P00722]; experiment: ELISA, plate coated with 1/16 dilution of the pUR291 control stock, HRPO-labeled MB47 1:1000
[5] = target: control protein from cells containing plasmid pUR291 (beta-galactosidase without an apolipoprotein insert) (Escherichia coli (strain K12)) [β-galactosidase: P00722]; experiment: ELISA, plate coated with 1/8 dilution of the pUR291 control stock, HRPO-labeled MB47 1:1000
[6] = target: control protein from cells containing plasmid pUR291 (beta-galactosidase without an apolipoprotein insert) (Escherichia coli (strain K12)) [β-galactosidase: P00722]; experiment: ELISA, plate coated with 1/64 dilution of the pUR291 control stock, HRPO-labeled MB47 1:1000
[7] = target: control protein from cells containing plasmid pUR291 (beta-galactosidase without an apolipoprotein insert) (Escherichia coli (strain K12)) [β-galactosidase: P00722]; experiment: ELISA, plate coated with 1/2 dilution of the pUR291 control stock (395.0 ug/100 ul), HRPO-labeled MB47 1:1000
[8] = target: apo A-I/B-100 fusion protein expressed by plasmid 137 (beta-galactosidase / apo A-I / apo B-100) (human); experiment: ELISA, plate coated with 1/16 dilution of the 137 stock, HRPO-labeled MB47 1:1000
[9] = target: apo A-I/B-100 fusion protein expressed by plasmid 137 (beta-galactosidase / apo A-I / apo B-100) (human); experiment: ELISA, plate coated with 1/4 dilution of the 137 stock, HRPO-labeled MB47 1:1000
[10] = target: apo A-I/B-100 fusion protein expressed by plasmid 137 (beta-galactosidase / apo A-I / apo B-100) (human); experiment: ELISA, plate coated with 1/2 dilution of the 137 stock (0.95 ug/100 ul), HRPO-labeled MB47 1:1000
[11] = target: control protein from cells containing plasmid pUR291 (beta-galactosidase without an apolipoprotein insert) (Escherichia coli (strain K12)) [β-galactosidase: P00722]; experiment: ELISA, plate coated with 1/4 dilution of the pUR291 control stock, HRPO-labeled MB47 1:1000
[12] = target: apo A-I/B-100 fusion protein expressed by plasmid 137 (beta-galactosidase / apo A-I / apo B-100) (human); experiment: ELISA, plate coated with 1/64 dilution of the 137 stock, HRPO-labeled MB47 1:1000
[13] = target: apo A-I/B-100 fusion protein expressed by plasmid 137 (beta-galactosidase / apo A-I / apo B-100) (human); experiment: ELISA, plate coated with 1/2 dilution of the 137 stock (0.95 ug/100 ul), HRPO-labeled AI-11 1:1000
[14] = target: control protein from cells containing plasmid pUR291 (beta-galactosidase without an apolipoprotein insert) (Escherichia coli (strain K12)) [β-galactosidase: P00722]; experiment: ELISA, plate coated with 1/2 dilution of the pUR291 control stock (395.0 ug/100 ul), HRPO-labeled AI-11 1:1000
[15] = target: apo A-I/B-100 fusion protein expressed by plasmid 137 (beta-galactosidase / apo A-I / apo B-100) (human); experiment: ELISA, plate coated with 1/4 dilution of the 137 stock, HRPO-labeled AI-11 1:1000
[16] = target: control protein from cells containing plasmid pUR291 (beta-galactosidase without an apolipoprotein insert) (Escherichia coli (strain K12)) [β-galactosidase: P00722]; experiment: ELISA, plate coated with 1/4 dilution of the pUR291 control stock, HRPO-labeled AI-11 1:1000
[17] = target: control protein from cells containing plasmid pUR291 (beta-galactosidase without an apolipoprotein insert) (Escherichia coli (strain K12)) [β-galactosidase: P00722]; experiment: ELISA, plate coated with 1/16 dilution of the pUR291 control stock, HRPO-labeled AI-11 1:1000
[18] = target: control protein from cells containing plasmid pUR291 (beta-galactosidase without an apolipoprotein insert) (Escherichia coli (strain K12)) [β-galactosidase: P00722]; experiment: ELISA, plate coated with 1/32 dilution of the pUR291 control stock, HRPO-labeled AI-11 1:1000
[19] = target: control protein from cells containing plasmid pUR291 (beta-galactosidase without an apolipoprotein insert) (Escherichia coli (strain K12)) [β-galactosidase: P00722]; experiment: ELISA, plate coated with 1/8 dilution of the pUR291 control stock, HRPO-labeled AI-11 1:1000
[20] = target: apo A-I/B-100 fusion protein expressed by plasmid 137 (beta-galactosidase / apo A-I / apo B-100) (human); experiment: ELISA, plate coated with 1/8 dilution of the 137 stock, HRPO-labeled AI-11 1:1000
[21] = target: control protein from cells containing plasmid pUR291 (beta-galactosidase without an apolipoprotein insert) (Escherichia coli (strain K12)) [β-galactosidase: P00722]; experiment: ELISA, plate coated with 1/64 dilution of the pUR291 control stock, HRPO-labeled AI-11 1:1000
[22] = target: apo A-I/B-100 fusion protein expressed by plasmid 137 (beta-galactosidase / apo A-I / apo B-100) (human); experiment: ELISA, plate coated with 1/32 dilution of the 137 stock, HRPO-labeled AI-11 1:1000
[23] = target: apo A-I/B-100 fusion protein expressed by plasmid 137 (beta-galactosidase / apo A-I / apo B-100) (human); experiment: ELISA, plate coated with 1/64 dilution of the 137 stock, HRPO-labeled AI-11 1:1000
[24] = target: apo A-I/B-100 fusion protein expressed by plasmid 137 (beta-galactosidase / apo A-I / apo B-100) (human); experiment: ELISA, plate coated with 1/16 dilution of the 137 stock, HRPO-labeled AI-11 1:1000

- Optical density at 490 nm [1]: 0.1 OD 490 nm
- Optical density at 490 nm [2]: 0.02 OD 490 nm
- Optical density at 490 nm [3]: 0.14 OD 490 nm
- Optical density at 490 nm [4]: 0.04 OD 490 nm
- Optical density at 490 nm [5]: 0.1 OD 490 nm
- Optical density at 490 nm [6]: 0.01 OD 490 nm
- Optical density at 490 nm [7]: 0.1 OD 490 nm
- Optical density at 490 nm [8]: 0.1 OD 490 nm
- Optical density at 490 nm [9]: 0.46 OD 490 nm
- Optical density at 490 nm [10]: 1.3 OD 490 nm
- Optical density at 490 nm [11]: 0.12 OD 490 nm
- Optical density at 490 nm [12]: 0.08 OD 490 nm
Substance: monoclonal antibody MB47, secreted by hybridoma MB47 (ATCC HB 8746)

- Optical density at 490 nm [13]: 1 OD 490 nm
- Optical density at 490 nm [14]: 0.1 OD 490 nm
- Optical density at 490 nm [15]: 0.6 OD 490 nm
- Optical density at 490 nm [16]: 0.08 OD 490 nm
- Optical density at 490 nm [17]: 0.07 OD 490 nm
- Optical density at 490 nm [18]: 0.05 OD 490 nm
- Optical density at 490 nm [19]: 0.08 OD 490 nm
- Optical density at 490 nm [20]: 0.2 OD 490 nm
- Optical density at 490 nm [21]: 0.04 OD 490 nm
- Optical density at 490 nm [22]: 0.14 OD 490 nm
- Optical density at 490 nm [23]: 0.12 OD 490 nm
- Optical density at 490 nm [24]: 0.14 OD 490 nm
Substance: monoclonal antibody AI-11, secreted by hybridoma AI-11 (ATCC HB 9201)
